# According to US20220273767A1 (SYNTHORX, published 2022):
# T1: IL-10 receptor signaling complex on mouse splenocytes (CD8 T cells, NK cells, B cells) (mouse, UniProt Q61727 17-575; Q61190 20-349)
# T1 sequence (looked up) 1: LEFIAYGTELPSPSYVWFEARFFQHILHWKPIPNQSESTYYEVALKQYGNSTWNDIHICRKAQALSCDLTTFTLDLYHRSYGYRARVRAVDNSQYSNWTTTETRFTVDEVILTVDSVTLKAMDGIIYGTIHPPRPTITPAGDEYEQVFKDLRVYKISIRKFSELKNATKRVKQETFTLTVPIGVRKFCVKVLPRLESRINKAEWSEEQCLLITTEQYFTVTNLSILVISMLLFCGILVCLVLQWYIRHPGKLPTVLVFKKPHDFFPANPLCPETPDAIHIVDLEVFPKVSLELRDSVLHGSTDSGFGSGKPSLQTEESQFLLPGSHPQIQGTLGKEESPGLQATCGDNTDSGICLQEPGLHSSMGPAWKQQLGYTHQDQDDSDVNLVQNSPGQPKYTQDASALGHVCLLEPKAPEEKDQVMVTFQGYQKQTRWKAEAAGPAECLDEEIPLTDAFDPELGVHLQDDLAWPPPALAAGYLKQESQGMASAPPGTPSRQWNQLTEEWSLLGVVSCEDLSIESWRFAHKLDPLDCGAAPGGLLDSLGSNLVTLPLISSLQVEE
# T1 sequence (looked up) 2: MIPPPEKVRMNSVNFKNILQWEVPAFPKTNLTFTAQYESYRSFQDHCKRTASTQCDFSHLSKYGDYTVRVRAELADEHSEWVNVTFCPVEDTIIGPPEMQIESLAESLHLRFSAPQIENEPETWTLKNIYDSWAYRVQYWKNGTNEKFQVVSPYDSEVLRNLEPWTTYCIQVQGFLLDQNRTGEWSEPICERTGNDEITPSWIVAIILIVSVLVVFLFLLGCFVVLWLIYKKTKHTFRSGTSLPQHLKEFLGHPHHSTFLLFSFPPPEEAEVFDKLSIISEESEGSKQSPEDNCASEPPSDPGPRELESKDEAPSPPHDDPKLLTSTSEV
# B1: Wild-type His-IL-10 (ligand)
# chain: MHHHHHHGSSENLYFQSPGQGTQSENSCTHFPGNLPNMLRDLRDAFSRVKTFFQMKDQLDNLLLKESLLEDFKGYLGCQALSEMIQFYLEEVMPQAENQDPDIKAHVNSLGENLKTLRLRLRRCHRFLPCENKSKAVEQVKNAFNKLQEKGIYKAMSEFDIFINYIEAYMTMKIRN
# What was measured:
# [1] = biological target: T1, IL-10 receptor signaling complex on …; assay: cell-based or functional assay
# [2] = biological target: T1, IL-10 receptor signaling complex on …; assay: cell-based or functional assay; remark: listed apart in the source
binder,measurement,setting,value
B1,"EC50, STAT3 phosphorylation, B cells, B57BL/6 mouse splenocytes",[1],0.83 ng/mL
same,"EC50, STAT3 phosphorylation, CD8 T cells, B57BL/6 mouse splenocytes",[1],3.65 ng/mL
same,"EC50, STAT3 phosphorylation, NK cells, B57BL/6 mouse splenocytes",[1],1.06 ng/mL
same,"EC50, STAT3 phosphorylation, B cells, Balb/c mouse splenocytes",[2],1.3 ng/mL
same,"EC50, STAT3 phosphorylation, CD8 T cells, Balb/c mouse splenocytes",[2],4.07 ng/mL
same,"EC50, STAT3 phosphorylation, NK cells, Balb/c mouse splenocytes",[2],1.08 ng/mL
